The target in the assay is T1, PPE68 (Mycobacterium tuberculosis, UniProt P9WHW9 1-368).
T1 construct: also called recombinant PPE68
T1 sequence: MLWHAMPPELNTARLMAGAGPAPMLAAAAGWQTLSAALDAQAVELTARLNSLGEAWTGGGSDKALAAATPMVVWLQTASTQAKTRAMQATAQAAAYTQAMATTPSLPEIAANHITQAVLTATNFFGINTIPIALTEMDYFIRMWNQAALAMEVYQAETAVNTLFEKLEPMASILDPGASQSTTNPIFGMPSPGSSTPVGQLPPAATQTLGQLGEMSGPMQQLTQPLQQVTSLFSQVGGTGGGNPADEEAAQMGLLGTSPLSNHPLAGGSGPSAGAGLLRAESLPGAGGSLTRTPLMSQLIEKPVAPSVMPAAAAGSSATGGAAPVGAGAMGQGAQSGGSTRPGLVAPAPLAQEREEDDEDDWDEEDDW
The assay can be described thus: other fluorescence titration; intrinsic fluorescence of the PPE protein (10 μg) with the tryptophan-free PE protein added (10 and 30 μg); excitation 280 nm, emission 300-340 nm, 25 ± 0.1 °C. Particulars: both partners purified.

B1: PE35 (natural protein)
chain: MEKMSHDPIAADIGTQVSDNALHGVTAGSTALTSVTGLVPAGADEVSAQAATAFTSEGIQLLASNASAQDQLHRAGEAVQDVARTYSQIDDGAAGVFAE
notes: also called recombinant PE35
As for B1, the binding result was “binds”.

The values are drawn from paper PMC6943233, “Disorder‐to‐order transition in PE–PPE proteins of Mycobacterium tuberculosis augments the pro‐pathogen immune response” (FEBS Open Bio, 2019).
